According to IntAct's records for PubMed 17947231:

B1: Calvin cycle protein CP12-2, chloroplastic (Arabidopsis thaliana (Mouse-ear cress)), Q9LZP9 (parent)
chain: MATIATGLNIATQRVFVTSENRPVCLAGPVHLNNSWNLGSRTTNRMMKLQPIKAAPEGGISDVVEKSIKEAQETCAGDPVSGECVAAWDEVEELSAAASHARDKKKADGSDPLEEYCKDNPETNECRTYDN
partner: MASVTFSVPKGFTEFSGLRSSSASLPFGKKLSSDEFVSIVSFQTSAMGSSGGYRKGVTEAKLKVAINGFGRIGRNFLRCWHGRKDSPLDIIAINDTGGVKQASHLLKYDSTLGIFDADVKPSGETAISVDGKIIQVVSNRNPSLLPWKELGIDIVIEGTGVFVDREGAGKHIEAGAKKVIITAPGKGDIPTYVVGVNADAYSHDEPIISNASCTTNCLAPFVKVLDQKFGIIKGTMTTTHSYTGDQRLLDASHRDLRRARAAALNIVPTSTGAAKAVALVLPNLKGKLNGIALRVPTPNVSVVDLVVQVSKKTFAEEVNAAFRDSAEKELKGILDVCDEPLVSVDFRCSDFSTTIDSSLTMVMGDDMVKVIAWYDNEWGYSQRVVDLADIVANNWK

Variants of: B1
Details: with GAPA1, P25856
In the case of C126S, the “effect of a mutation on the interaction” value is reported as “disrupting interaction”.
